Holding throughout (test): cell-based or functional assay
Test [1] addresses h19BBz CAR (human) (UniProt P01732).
Test [2] addresses m19-humBBz CAR (mouse; human) (UniProt P01731).
The target is the same in test [3]. The source holds these as a separate data set.

Like-named read-outs stand apart in the source and are kept apart here.

TRAF2 (over-expressed, cerulean-tagged) registered an NF-κB, fold against h19BBz alone in test [1] of 7.7 fold.
In test [2], TRAF1 DN (184-417aa) registered an NF-κB signaling, GFP % in NF-κB/293/GFP-Luc reporter cells of 13.4% and an NF-κB signaling, GFP MFI in NF-κB/293/GFP-Luc reporter cells of 1690 MFI.

B1: TRAF2 DN (87-501aa) (protein, UniProt Q12933 87-501, looked up, species assumed)
chain: SSSAFPDNAARREVESLPAVCPSDGCTWKGTLKEYESCHEGRCPLMLTECPACKGLVRLGEKERHLEHECPERSLSCRHCRAPCCGADVKAHHEVCPKFPLTCDGCGKKKIPREKFQDHVKTCGKCRVPCRFHAIGCLETVEGEKQQEHEVQWLREHLAMLLSSVLEAKPLLGDQSHAGSELLQRCESLEKKTATFENIVCVLNREVERVAMTAEACSRQHRLDQDKIEALSSKVQQLERSIGLKDLAMADLEQKVLEMEASTYDGVFIWKISDFARKRQEAVAGRIPAIFSPAFYTSRYGYKMCLRIYLNGDGTGRGTHLSLFFVVMKGPNDALLRWPFNQKVTLMLLDQNNREHVIDAFRPDVTSSSFQRPVNDMNIASGCPLFCPVSKMEAKNSYVRDDAIFIKAIVDLTGL
modifications: cerulean fluorescent protein tag
Consider B1, for which, in test [3], the NF-κB signaling, GFP MFI in NF-κB/293/GFP-Luc reporter cells was 14300 MFI and the NF-κB signaling, GFP+% in NF-κB/293/GFP-Luc reporter cells came to 63.5%.

B2: TRAF3 DN (382-568aa) (protein, UniProt Q13114 382-568, looked up, species assumed)
chain: ESQLSRHDQMLSVHDIRLADMDLRFQVLETASYNGVLIWKIRDYKRRKQEAVMGKTLSLYSQPFYTGYFGYKMCARVYLNGDGMGKGTHLSLFFVIMRGEYDALLPWPFKQKVTLMLMDQGSSRRHLGDAFKPDPNSSSFKKPTGEMNIASGCPVFVAQTVLENGTYIKDDTIFIKVIVDTSDLPDP
modifications: cerulean fluorescent protein tag
In test [3], B2 showed an NF-κB signaling, GFP % in NF-κB/293/GFP-Luc reporter cells of 30.8% and an NF-κB signaling, GFP MFI in NF-κB/293/GFP-Luc reporter cells of 6060 MFI.
